Laboratory results reported in the domain aggregation screens of Martell et al. (2025).

experiment: soluble fraction after stress (log2 fold change); higher = more stays soluble; pooled small domains, quantitative proteomics; conditions: stress: 50 degC
In short: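 Quantitative proteomics served as the high-throughput read-out for pooled custom libraries of small protein domains. Each was stressed at 50°C. Aggregation propensity is expressed as the base-two log fold change in soluble protein after stress. A higher value means a larger share of the protein remains in solution.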

| Sequence | soluble fraction (log2) |
| --- | --- |
| HMRNGGHTVYRNNGSLFIVVRDGDKLESVASEFRVSPKKLIKYNDLDIHSNVKTGDMIYIRPKA | -0.236 |
| HMSRAHTELEEKLLTMLEENDMTLPMRVISNIASRIEGIIIPEEKILEVLKKSYDRYREHQMD | 0.0257 |
| HMRLPNGYGSITKLSGKRRKPFMVRITTGYDNEGKQLMSVLGYYATRTEALAVLAEYNKNPYNPI | -2.57 |
| HMEILTLEELKRLMAKAKLKQNQISGHAGVSKQQISMILAGKRNITKDVSDNLKANLAEYFP | -0.462 |
| HMQSISLEEAKSAALDDAQLGIDEVEFLKTERNTDGDTSYYDIQFLVNGTIYKYQINTETGAILHVDYEA | -0.052 |
| HMFPNQLLISRLSNQLSASERFAAVSSIAQLKNIDYDVLHVLVHTMNSDPNSNVRLAALEALSR | -0.529 |
| HMVWPETEAIVTEDFIGKKRSEVQQEGVIFEFFGEGDMVIDQLPRGGVTLNESGRVWIYLGEDTF | -0.423 |
| HMQRAEQLPAELAAVFRAETEAWGFFERQPPGYQRVAIHWVASAKQEATRLRRLAKLIEESAAGRR | -1.7 |
| HMFPQQGEIRQGVIASITPDQILVNVGTKSEGIISGKELEAISKSERDSLNVDQKIAVYILDPEDSNG | 0.259 |
| HMSGPFTELTPREREILSHLAEGQSNKVIARHLQISDGTVKLHVKAILRKLEVHSRVEAAVMAVEHGV | -1.96 |
| HMTKIEYTEQEFNDFIQAYKNNRKMFPEDYIVKTQVVFINKGFSKSQADMIIAQIETRLRLQGE | -0.421 |
| HMKVNQFEVEGNQRYSTEEIAKASGVSKGDNLFLVNKTETARKLLDELAYVRSVNIKRKLPDTLVITVAE | 0.399 |
| HMGASIQITVNNTPVMLKNKTHYTLVDVLDFYPFDLSKMGGTELYTAINGVKSGFTDPVHANDSIEIYWI | -0.148 |
| HMHHIDTAWFRGKMREHRLTQEAVGQAIGLERSMVSKIIKGTVSFNARKASAWAQLLRVSESEILERVGI | -2.37 |
| HMSGSLLQTRQRLQALTDLGHYKGDLAAAWGPEAIEALKRAQAALGITVDGKWGPETEDAIQVALQAQT | 0.0305 |
| HMPGRPSRISDAVKDQIDHDLRKNPRDLGYSQNLWDGKLLSHHLKERYQITLGIRQAQRLFHQLGFRQR | -0.0323 |
| HMRGLGDLEPVDSLGKIRIDDGHMVLAFGRHKGRHLSEVQAEDPRYIHWLLSPKGIEDVEAREKVKVYLEG | -0.0024 |
| HMGGVTVQNRETHVNSTVNVRSEQTTESERVALAYQGDAITQIESYENGWSKVEYKGLSGYVMTEYL | -0.181 |
| HMLDYKSALQELLQAQRRSRPRYEVISTEGPDHERVFEVAVWLDNEELGRGKGRSKREAEHQAAQAALTQL | 0.068 |
| HMLSTGQLIRYYRKRAGMTQAELAEEVEMSEPGIRNYELGNRTPSKAQLSAIARGLGIEPEALI | -0.48 |
| HMGDRRSVFEQSVLDAIKSLVKQGELATTKAISDHIGTNYQGNVSRAITALLADNKIKKLPKEGVLQPYEA | 0.0535 |
| HMGNIKVPSVMGMTLEGAEKVAKDNGAVIEVLEYKESTEEDGTIIEQSPKADMTVATLEKISVVISGK | -0.105 |
| HMAIHTSVTEHGEHDLTVRMEMEQVFAIEMAVVSHEQATMLERTFKANAEAIYQKLLGVMTQEYP | -2.33 |
| HMSSSMDAIAEIIRSIPRGDHLTAPEVYELAKQRGLKLSLSTVYRTLNKLKVVGDVITVSGDRGLRYESV | -0.181 |
| HMNTWVEIFRAEDQGQIRDASLVLLAVKVAHRVDMNSSSAPWSLMVPAQDQQRAHHELTTYWQENAH | -1.43 |

| Sequence | soluble fraction (log2) |
| --- | --- |
| HMSFNNHYEILQVQPSADREVIEAAAKALLKKHHPDLGGRNTITSHIVQAKKVLTDTSQRADFDARLRERL | -0.0959 |
| HMNVSDIENKLNEMLSPLEKKVMVLYLEGKSYVEIGELLGRHTKSVDNALQRVKRKLEIYLKNRK | -1.22 |
| HMERLKKYLDDVRTFLPGTNPKKVDEILREIESHVLERAEREHGEVNDNAVAMSIKEYGSPEEVAARYYEG | 0.194 |
| HMASALDVALNDFAEMRKKMRKPLTDRALALTLSELEKLAPGNDEKKIAILNQSIQRGWQGVFPLK | -0.162 |
| HMFDFMVLGQAIKKARESKEMTREQLAEILDVAPRHIQSIENEGQYPSFPLFIRLVTMFNISVDQY | -1.92 |
| HMVAMYLRVGISNGRRYLSIVQGYRDQVTKKVRHNTVKSLGYLDDLEKHYPDPIAHFKAVVEEMNKKQALE | -0.847 |
| HMSLTEDELFHALTIYANREGINIGATELKYLLTHYARNLGKLIELINQVSQAATMQKKPITIPLIKHS | -0.428 |
| HMTIGKRIKRRRIELKMSIDSLARTIGKDRSTVYRYESGAIDKVSSDVLAKLATALNTTPAYLIGL | -3.27 |
| HMAPQQARAAKTRVKLLDAAATVVRRDGIQAMTLARVAEEAGVSKGGLLHHFGSKEELVTGMLEQ | -0.152 |
| HMGTTAWISTKTANGSVNIRTGPGTGYGVIGWALNGDKLEVLSRGTSWHYVKLVKNGKIGYVSASYVSFTQ | -0.193 |
| HMRGLLSQREHDVLDLVARGFSYGEIARLRSISVSTVQTHIKNLYRKLAVSSRTEAVYEAKQMGI | -1.59 |
| HMADGTSIYAEREVLYVTSPTANTAKVYNVSGALVRTMTLSAGQTVRTALPAGFYVVALGNGNTHKVIV | -0.889 |
| HMSLMHEESLKNIRRFINSLPESLRTAFTLREQDGLSYEEIGVITETPIGTVRSRIFRAREAILEHIKKEL | -2.24 |
| HMRVTEVSYDKFLDMLSGGQVTVVELQENERELYFKAADENGAERIYSTGVFPDADLQKRLSESGVTF | -0.025 |
| HMSMFSEILRTLRKAKGLTQRELAGHLGVTQQMVAKWEKGQSTPGPDQLTRMAELLEVSTDTLLGR | -0.162 |
| HMKGKITTNWVSLTSDLGWLRSELYSSGSVLEERISNEGLIELHLENFQNDLIKLLEVEGFDLIKE | -3.1 |
| HMEDQLDSLKDIIYDYLENNELYYNDLQEFKKIIIENMEFIHPNLNHKLIDNNFFKLINFKLEYNF | -0.0455 |
| HMLPERIQTIVALIGHGRAMDLVREFGGQEIKFPAQEGNDTWAALVEVIGEAATRKLAAVFGGGQAPPVYI | -0.778 |
| HMSVTRELMLVKVKVTPEQRAGVSAIVDIFRANIIDVGKESMIIELTGNKSKLEAFIDLLDGYEILELART | -0.861 |
| HMLDYQLQVFKDTLEANRKHRGQKIVFIHGKGEGVLRRALIHALNYQYKKFTYQDASFREYGYGATQVTI | -0.103 |
| HMGKINEIVANNIAILRKKNRLSLEELGKLSGVSKSMLALIEKGDGNPTLGILWKIANGLGVPFDELTRRP | -0.0928 |
| HMKTMTTIRKGSRGDTVATLQRKLNLIADGIFGPITDEAVRDFQKSHGLAVDGIVGPKTWAALGVGS | 0.0423 |
| HMSYIGEEKAKSIAVSNVKGAGTNNVVKVEFDYDDGRAVYEVKVVYNAMEYEFEIDASNGKILSRDAESIY | -0.309 |
| HMIGIGSDVPNKLKPAIYSFGLVAVGEKSVIPDGVQIGKNTAVSGVTSKEDYPDGVLESGETLIKA | 0.0103 |
| HMEHVVFEVTESGELENNTAVKHVLNSFNNKSLNLAIDDFGTGYSNLRYIRDMMFGIIKIDRLFIKDINES | -0.018 |

| Sequence | soluble fraction (log2) |
| --- | --- |
| HMKSILSEIPGIGPKKRKSLMMQFGSVKNISEASLKDLSSTKGINSNLSKEIFNFFSVEKNN | -0.0118 |
| HMSLGSNISRLRAEKHLSQGDLAEALDVSRQSVSKWETDGSVPDLDKLVKLSRIFGVTLDELVTGTP | 0.0174 |
| HMVDLEINGRQTLQFVANKYGIPVEKLATDLNIPSDRFGEKLGRLRRQYAFTMNDVRKSILKNK | 0.00739 |
| HMDRFRYYITEDSVQRGTYPYVDETTLKRFTSQLHKYEQGMISAYGYLEYSKPLTAEQIKDYTLMPSP | 0.0317 |
| HMSRVSVDGEEVNFEGEIPDDPSRIYELLMGALSEQSRVVVKFFVDGKDALLDEGFPSRYQMIEAESV | -0.285 |
| HMKVIETKYNTYVVKSGDTLYSVAKKYGISVTELKEINDLSNNTLSIGQKLLVPATTIIIDE | -0.117 |
| HMDLATQHAAKVNAAILAARRFEREGSWRQVAAKYSEALQLMPGNEQASRGYQQAMAMLDERD | 0.0786 |
| HMVSDTGAIEAIVAQVLADNPKLVEGYLATPEDKRGKAIGPFIGLTRKAAAGVNPQVVMDVLKKKLSEL | -0.0515 |
| HMDFGHWAAHKLEQMSEYRLRHGEAVAIGIALDVLYSVRQGLLARPAAERILSLLERLGFTLFDPELKS | -0.213 |
| HMPESYFEMLQKLLETYALPQEGTIYFSAADLARMPQKFEDVIEQTAQKKGGHLVVSKEPKDMDGGFVLV | -1.41 |
| HMTGYVMIRVDGLSLEKFLNMAAEAGVRVSDVRRASYTVLYAVVSPRDLKKLQSVAPEKYTVTVR | -0.664 |
| HMEILNYVVSDGQSGIRIDRYLSDSNEDLSRSYIQKLLKEQKVTVQGTFVKANYKVQAGDVITVEVPDMA | -0.946 |
| HMISFLNFVRKEIDASQLKDSTKQNHLTTIGLLQSFKPSIEFKDLNYNFITSFEKYLYDAGYQM | 0.133 |
| HMSFVDFYGLFTTELQRLAELPVTADELIKNTGLHKSQLTDWLKRAEEDGVVKKLNRPVRYQVEKK | -0.987 |
| HMQLKKDTILSYIEEKLIDSYNSNKGFTTQEISVALNMQRTNVSAILNNLVKENKLVKTKGKPVRYFLSG | -0.708 |
| HMSSVEVWINGKSSGLTSDNRAQILQQLPAESIERIEVIDNPSAKFSAEGSAGIINIVLKKD | 0.157 |
| HMRITEQRRTLAKLFADTPGYLSPKDVYDYMGRFYPGLSFDTVYRNLRLLDELGVLEQVVFEDGVKFK | -0.718 |
| HMIILYTDEQQRIIDRLNEFIGEQPSQNEAAKLLGISAPILTNLRKGTYTGTVDKFMNKLAAYFNIKADLG | -1.05 |
| HMAIDINKIYSEIKKKIPNQDNHIKEILSIIWRDFNNYQNIKSRSILINGEKSSPKKEIFNIIEDNINIPV | 0.0154 |
| HMYEDIDSAYRILEINSTVSNQEIKNAYRRMAKKYHPDKVAHLGVEHQKGAEEKFKKVQEAYILIKKRRG | -0.557 |
| HMELNKNDLKIIKNISHIYPYFTPVKILQLILSKKFKTIDYNKILKSTSILTTDRSHLYYILNN | 0.0788 |
| HMGQKETIVDLLKTNGTMTQLALAEAIYGDKNHGPNIYSVLMGRVNSGAVLRTGSQPAYYSLSG | 0.0821 |
| HMTFNLDVDGDDQVTALGDGLMIIRKLFGATFAGDALTNKAISPDATRTTDEIHAYIEKGITSGVLD | -0.268 |
| HMKMPNGYGSITKLSGKRRKPWRVRKTAGWELDAKTQKLKQTYINIGYYETRADAMSALVSYNEDP | -0.898 |
| HMIGIEALAGEIDRVRQVLTGGGGLSDVQLFSQLKALNEIKAALGASPDPRAPELVQRVDQLLEAAFRS | -0.0467 |
